Test [1] addresses T1, Human LRRC15 Protein, His Tag (Acro Biosystems) (human, UniProt Q8TF66 22-538, limits assumed).
T1 sequence (looked up): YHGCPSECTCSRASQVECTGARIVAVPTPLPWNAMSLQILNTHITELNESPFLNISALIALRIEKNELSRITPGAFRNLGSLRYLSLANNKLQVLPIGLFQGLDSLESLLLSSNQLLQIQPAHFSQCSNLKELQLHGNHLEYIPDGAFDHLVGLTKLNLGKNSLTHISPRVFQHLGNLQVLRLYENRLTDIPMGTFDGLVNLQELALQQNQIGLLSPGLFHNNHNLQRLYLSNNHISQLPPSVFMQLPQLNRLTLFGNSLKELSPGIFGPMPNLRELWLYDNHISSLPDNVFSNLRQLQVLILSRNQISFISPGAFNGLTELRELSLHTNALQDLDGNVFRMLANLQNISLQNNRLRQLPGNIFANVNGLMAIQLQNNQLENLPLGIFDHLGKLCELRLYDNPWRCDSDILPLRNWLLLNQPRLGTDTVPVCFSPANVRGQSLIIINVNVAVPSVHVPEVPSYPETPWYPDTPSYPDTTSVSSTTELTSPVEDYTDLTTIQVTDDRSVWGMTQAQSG
Kind of test: BLI; dissociation pH 7.4 black, pH 5.4 grey [2/2); D00007 FIG. 1E (2/2]. An excerpt:
For each individual plot, antigen binding proteins were captured on anti-human Fc biosensors and associated with LRRC15 at pH 7.4. Dissociation was at pH 7.4 (black) or pH 5.4 (grey). Major X-axis ticks=100 seconds, with left dashed vertical line=0 seconds. Major Y-axis ticks=0.5 nm and octet plots are shown MYT5712 and MYT6080-MYT6121.
Multiple LRRC15-binding monoclonal antibodies have been described in the literature and can be used as a template for engineering pH-dependent binding. We selected discovery RabMAb clone 15G7 (rabbit VH SEQ ID NO: 378, rabbit VL SEQ ID NO: 451; humanized VH SEQ ID NO: 382, humanized VL SEQ ID NO: 455) as a LRRC15-binding monoclonal antibody for pH-engineering via histidine scanning. […] To generate pH-dependent sequence variants, individual amino acid residues within the heavy chain CDRs were systematically substituted with a histidine (or alanine if H was already present in a given position; e.g., MYT6099), one at a time (rabbit, MYT6080-6121). Desirable mutations were transferred to a humanized framework (humanized, MYT 8387-8411). After allowing for four days of protein expression, cell culture supernatants were collected, quantified by SDS-PAGE analysis, and the pH dependence of the variant was evaluated using biolayer interferometry (BLI) on an Octet RED 96e instrument. Briefly, cell culture supernatants were diluted based on qualitative expression level of the variant determined by visual examination of SDS-PAGE gels, 5 μL of cell culture supernatant was diluted into 195 μL of 1×PBST, pH 7.4 for high expressors, 25 μL of cell culture supernatant was diluted into 175 μL of 1×PBST, pH 7.4 for medium expressors and 100 μL of cell culture supernatant was diluted into 100 μL of 1×PBST, pH 7.4 for low expressors for loading onto the sensor tips.

Test [2] concerns the target T2, LRRC15 on LRRC15 positive cell lines SAOS2 and G292 (UniProt Q8TF66 22-581, limits assumed).
T2 construct: whole, on cells
T2 sequence (looked up): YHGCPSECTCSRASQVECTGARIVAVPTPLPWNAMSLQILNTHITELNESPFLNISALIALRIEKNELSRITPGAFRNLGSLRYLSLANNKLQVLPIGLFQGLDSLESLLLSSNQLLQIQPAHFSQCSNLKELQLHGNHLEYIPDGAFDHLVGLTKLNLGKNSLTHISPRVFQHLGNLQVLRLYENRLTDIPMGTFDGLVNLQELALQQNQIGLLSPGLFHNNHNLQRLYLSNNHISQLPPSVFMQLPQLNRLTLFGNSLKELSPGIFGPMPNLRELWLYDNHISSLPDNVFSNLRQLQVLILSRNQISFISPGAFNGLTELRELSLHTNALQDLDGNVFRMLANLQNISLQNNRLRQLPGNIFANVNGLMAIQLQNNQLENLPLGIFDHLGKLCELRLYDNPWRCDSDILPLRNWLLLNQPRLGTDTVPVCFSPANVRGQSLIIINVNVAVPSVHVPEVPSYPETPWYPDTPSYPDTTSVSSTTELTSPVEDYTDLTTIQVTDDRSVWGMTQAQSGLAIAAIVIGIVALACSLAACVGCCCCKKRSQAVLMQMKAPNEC
Briefly: cell binding on SAOS2 cells (LRRC15 positive), pH 7.4. Also noted: unit not given here.

B1: MYT6111 (antibody, V domains shown)
VH: QEQLEESGGDLVKPGASLTLTCTASGLDFRRTNYICWVRQAPGKGLEWIGCIYIADVVHYYASWAKGRFTFSKTSSTTVTLQMTSLTAADTATYFCARGHDGGFVYGMDLWGPGTLVTVSS
VL: DVVMTQTPASVSEPVGGTVTIKCQASQSIGNYLSWYQQKPGQRPKRLIYSASTLPSGVPSRFKGAGSGTEFTLTISDLESADAATYYCQNNYWLAGYGHPFGGGTEVVVK
notes: chimeric rabbit 15G7 variant (rabbit variable domains, human constant regions); also called 15G7 VH A100H
For the molecule B1, the binding result in test [1] was “binds”.

B2: MYT6115 (antibody, V domains shown)
VH: QEQLEESGGDLVKPGASLTLTCTASGLDFRRTNYICWVRQAPGKGLEWIGCIYIADVVHYYASWAKGRFTFSKTSSTTVTLQMTSLTAADTATYFCARGADGGHVYGMDLWGPGTLVTVSS
VL: DVVMTQTPASVSEPVGGTVTIKCQASQSIGNYLSWYQQKPGQRPKRLIYSASTLPSGVPSRFKGAGSGTEFTLTISDLESADAATYYCQNNYWLAGYGHPFGGGTEVVVK
notes: chimeric rabbit 15G7 variant (rabbit variable domains, human constant regions); also called 15G7 VH F104H
In the case of B2, the binding result in test [1] was “binds”.

B3: MYT6112 (antibody, V domains shown)
VH: QEQLEESGGDLVKPGASLTLTCTASGLDFRRTNYICWVRQAPGKGLEWIGCIYIADVVHYYASWAKGRFTFSKTSSTTVTLQMTSLTAADTATYFCARGAHGGFVYGMDLWGPGTLVTVSS
VL: DVVMTQTPASVSEPVGGTVTIKCQASQSIGNYLSWYQQKPGQRPKRLIYSASTLPSGVPSRFKGAGSGTEFTLTISDLESADAATYYCQNNYWLAGYGHPFGGGTEVVVK
notes: chimeric rabbit 15G7 variant (rabbit variable domains, human constant regions); also called 15G7 VH D101H
In the case of B3, the binding result in test [1] is “binds”.

B4: MYT6113 (antibody, V domains shown)
VH: QEQLEESGGDLVKPGASLTLTCTASGLDFRRTNYICWVRQAPGKGLEWIGCIYIADVVHYYASWAKGRFTFSKTSSTTVTLQMTSLTAADTATYFCARGADHGFVYGMDLWGPGTLVTVSS
VL: DVVMTQTPASVSEPVGGTVTIKCQASQSIGNYLSWYQQKPGQRPKRLIYSASTLPSGVPSRFKGAGSGTEFTLTISDLESADAATYYCQNNYWLAGYGHPFGGGTEVVVK
notes: chimeric rabbit 15G7 variant (rabbit variable domains, human constant regions); also called 15G7 VH G102H
On to B4, for which, in test [1], the binding result is recorded as “binds”.

B5: MYT6118 (antibody, V domains shown)
VH: QEQLEESGGDLVKPGASLTLTCTASGLDFRRTNYICWVRQAPGKGLEWIGCIYIADVVHYYASWAKGRFTFSKTSSTTVTLQMTSLTAADTATYFCARGADGGFVYHMDLWGPGTLVTVSS
VL: DVVMTQTPASVSEPVGGTVTIKCQASQSIGNYLSWYQQKPGQRPKRLIYSASTLPSGVPSRFKGAGSGTEFTLTISDLESADAATYYCQNNYWLAGYGHPFGGGTEVVVK
notes: chimeric rabbit 15G7 variant (rabbit variable domains, human constant regions); also called 15G7 VH G107H
As to B5, the binding result in test [1] is recorded as “no binding (tested: 50 nM LRRC15)”.

B6: MYT6120 (antibody, V domains shown)
VH: QEQLEESGGDLVKPGASLTLTCTASGLDFRRTNYICWVRQAPGKGLEWIGCIYIADVVHYYASWAKGRFTFSKTSSTTVTLQMTSLTAADTATYFCARGADGGFVYGMHLWGPGTLVTVSS
VL: DVVMTQTPASVSEPVGGTVTIKCQASQSIGNYLSWYQQKPGQRPKRLIYSASTLPSGVPSRFKGAGSGTEFTLTISDLESADAATYYCQNNYWLAGYGHPFGGGTEVVVK
notes: chimeric rabbit 15G7 variant (rabbit variable domains, human constant regions); also called 15G7 VH D109H
In the case of B6, in test [1], the binding result is on record as “binds”.

B7: MYT6119 (antibody, V domains shown)
VH: QEQLEESGGDLVKPGASLTLTCTASGLDFRRTNYICWVRQAPGKGLEWIGCIYIADVVHYYASWAKGRFTFSKTSSTTVTLQMTSLTAADTATYFCARGADGGFVYGHDLWGPGTLVTVSS
VL: DVVMTQTPASVSEPVGGTVTIKCQASQSIGNYLSWYQQKPGQRPKRLIYSASTLPSGVPSRFKGAGSGTEFTLTISDLESADAATYYCQNNYWLAGYGHPFGGGTEVVVK
notes: chimeric rabbit 15G7 variant (rabbit variable domains, human constant regions); also called 15G7 VH M108H
Take B7: the binding result in test [1] is “binds”.

B8: MYT6114 (antibody, V domains shown)
VH: QEQLEESGGDLVKPGASLTLTCTASGLDFRRTNYICWVRQAPGKGLEWIGCIYIADVVHYYASWAKGRFTFSKTSSTTVTLQMTSLTAADTATYFCARGADGHFVYGMDLWGPGTLVTVSS
VL: DVVMTQTPASVSEPVGGTVTIKCQASQSIGNYLSWYQQKPGQRPKRLIYSASTLPSGVPSRFKGAGSGTEFTLTISDLESADAATYYCQNNYWLAGYGHPFGGGTEVVVK
notes: chimeric rabbit 15G7 variant (rabbit variable domains, human constant regions); also called 15G7 VH G103H
Regarding B8, the binding result in test [1] was “binds”.

B9: MYT6121 (antibody, V domains shown)
VH: QEQLEESGGDLVKPGASLTLTCTASGLDFRRTNYICWVRQAPGKGLEWIGCIYIADVVHYYASWAKGRFTFSKTSSTTVTLQMTSLTAADTATYFCARGADGGFVYGMDHWGPGTLVTVSS
VL: DVVMTQTPASVSEPVGGTVTIKCQASQSIGNYLSWYQQKPGQRPKRLIYSASTLPSGVPSRFKGAGSGTEFTLTISDLESADAATYYCQNNYWLAGYGHPFGGGTEVVVK
notes: chimeric rabbit 15G7 variant (rabbit variable domains, human constant regions); also called 15G7 VH L110H
Consider B9, for which, in test [1], the binding result is “binds”.

B10: MYT6116 (antibody, V domains shown)
VH: QEQLEESGGDLVKPGASLTLTCTASGLDFRRTNYICWVRQAPGKGLEWIGCIYIADVVHYYASWAKGRFTFSKTSSTTVTLQMTSLTAADTATYFCARGADGGFHYGMDLWGPGTLVTVSS
VL: DVVMTQTPASVSEPVGGTVTIKCQASQSIGNYLSWYQQKPGQRPKRLIYSASTLPSGVPSRFKGAGSGTEFTLTISDLESADAATYYCQNNYWLAGYGHPFGGGTEVVVK
notes: chimeric rabbit 15G7 variant (rabbit variable domains, human constant regions); also called 15G7 VH V105H
For B10, the binding result in test [1] is recorded as “binds”.

B11: MYT6117 (antibody, V domains shown)
VH: QEQLEESGGDLVKPGASLTLTCTASGLDFRRTNYICWVRQAPGKGLEWIGCIYIADVVHYYASWAKGRFTFSKTSSTTVTLQMTSLTAADTATYFCARGADGGFVHGMDLWGPGTLVTVSS
VL: DVVMTQTPASVSEPVGGTVTIKCQASQSIGNYLSWYQQKPGQRPKRLIYSASTLPSGVPSRFKGAGSGTEFTLTISDLESADAATYYCQNNYWLAGYGHPFGGGTEVVVK
notes: chimeric rabbit 15G7 variant (rabbit variable domains, human constant regions); also called 15G7 VH Y106H
Consider B11, for which the binding result in test [1] is listed as “binds”.

B12: MYT9521 (antibody, V domains shown)
VH: EVQLVESGGGLVQPGGSLRLSCTASGFSFSSSHWICWVRQAPGKGLEWVGCIYAGSIGSTYYASWAKGRFTISRDTSKNTVYLQMNSLRAEDTAVYYCARAPNDIYNYYFNLWGQGTLVTVSS
VL: EIVMTQSPSTLSASVGDRVIITCQASENIYNYLAWYQQKPGKAPKLLIYYASDLASGVPSRFSGSGSGAEFTLTISSLQPDDFATYYCQSGYVSKSSTFGQGTKLTVL
notes: LC descriptor T66D; also called hu29F1 LC Asp Var
In turn, B12 returned an Affinity in test [2] of 1.58.

B13: MYT9731 (antibody, V domains shown)
VH: EVQLVESGGGLVQPGGSLRLSCTASGFSFSSSHWICWVRQAPGKGLEWVGCIYAGSIGSTYYASWAKGRFTISRDTSKNTVYLQMNSLRAEDTAVYYCARAPNDIYNYYFNLWGQGTLVTVSS
VL: EIVMTQSPSTLSASVGDRVIITCQASEEIYNYLAWYQQKPGKAPKLLIYYASTLASGVPSRFSGSGSGAEFTLTISSLQPDDFATYYCQSGYVSKSSTFGQGTKLTVL
notes: LC descriptor N28E; also called hu29F1 LC Glu Var
Regarding B13, in test [2], the Affinity is 0.352.

B14: MYT9523 (antibody, V domains shown)
VH: EVQLVESGGGLVQPGGSLRLSCTASGFSFSSSHWICWVRQAPGKGLEWVGCIYAGSIGSTYYASWAKGRFTISRDTSKNTVYLQMNSLRAEDTAVYYCARAPNDIYNYYFNLWGQGTLVTVSS
VL: EIVMTQSPSTLSASVGDRVIITCQASENIYNYLAWYQQKPGKAPKLLIYYASTLDSGVPSRFSGSGSGAEFTLTISSLQPDDFATYYCQSGYVSKSSTFGQGTKLTVL
notes: LC descriptor A68D; also called hu29F1 LC Asp Var
In turn, B14 gave an Affinity in test [2] of 0.817.

(Values after patent US20250352661A1 (MYTHIC THERAPEUTICS, published 2025).)
